# Test results taken from PMC9482650, “Quantitative fragmentomics allow affinity mapping of interactomes” (Nature Communications, 2022).
# T1: HTRA3, P83110
# T1 sequence (P83110 354-453, limits assumed, looked up): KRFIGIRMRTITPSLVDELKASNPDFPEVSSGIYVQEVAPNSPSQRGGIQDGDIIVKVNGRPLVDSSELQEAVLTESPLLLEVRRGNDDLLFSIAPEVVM
# T2: LIN7C, Q9NUP9
# T2 sequence (Q9NUP9 88-185, limits assumed, looked up): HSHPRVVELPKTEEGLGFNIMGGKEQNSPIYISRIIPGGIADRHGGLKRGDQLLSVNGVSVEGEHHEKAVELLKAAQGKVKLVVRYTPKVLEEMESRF
# T3: MPP7, Q5T2T1
# T3 sequence (Q5T2T1 134-230, limits assumed, looked up): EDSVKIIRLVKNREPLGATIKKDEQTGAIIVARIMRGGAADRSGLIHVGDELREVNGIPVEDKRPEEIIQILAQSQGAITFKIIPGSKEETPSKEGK
# T4: MPDZ_10, O75970
# T4 sequence (O75970 1624-1722, limits assumed, looked up): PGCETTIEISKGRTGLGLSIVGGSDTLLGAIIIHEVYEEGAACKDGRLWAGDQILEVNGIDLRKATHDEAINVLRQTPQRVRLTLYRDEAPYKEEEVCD
# T5: GRIP1_4, Q9Y3R0
# T5 sequence (Q9Y3R0 467-571, limits assumed, looked up): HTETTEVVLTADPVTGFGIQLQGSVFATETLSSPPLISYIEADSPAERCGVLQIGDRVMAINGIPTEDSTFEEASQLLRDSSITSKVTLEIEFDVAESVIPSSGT
# T6: APBA1_1, Q02410
# T6 sequence (Q02410 651-752, limits assumed, looked up): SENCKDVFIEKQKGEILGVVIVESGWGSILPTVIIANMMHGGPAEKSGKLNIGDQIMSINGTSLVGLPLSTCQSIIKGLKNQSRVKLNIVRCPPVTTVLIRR
# T7: PTPN13_1, Q12923
# T7 sequence (Q12923 1088-1188, limits assumed, looked up): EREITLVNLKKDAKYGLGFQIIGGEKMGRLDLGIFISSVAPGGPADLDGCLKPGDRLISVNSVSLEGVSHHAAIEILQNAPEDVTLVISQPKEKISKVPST
# T8: PARD3B_1, Q8TEW8
# T8 sequence (Q8TEW8 196-299, limits assumed, looked up): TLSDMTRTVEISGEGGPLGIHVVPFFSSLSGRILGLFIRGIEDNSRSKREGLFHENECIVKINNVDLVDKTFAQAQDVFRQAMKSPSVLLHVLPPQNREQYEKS
# T9: SNTG1, Q9NSN8
# T9 sequence (Q9NSN8 52-150, limits assumed, looked up): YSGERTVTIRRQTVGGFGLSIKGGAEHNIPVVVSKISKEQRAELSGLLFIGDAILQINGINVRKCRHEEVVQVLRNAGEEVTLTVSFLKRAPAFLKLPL
# T10: DFNB31_1, Q9P202
# T10 sequence (Q9P202 135-233, limits assumed, looked up): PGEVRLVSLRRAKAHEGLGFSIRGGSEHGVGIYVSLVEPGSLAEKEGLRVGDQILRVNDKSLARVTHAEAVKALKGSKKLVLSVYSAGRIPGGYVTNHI
# T11: MPDZ_12, O75970
# T11 sequence (O75970 1857-1958, limits assumed, looked up): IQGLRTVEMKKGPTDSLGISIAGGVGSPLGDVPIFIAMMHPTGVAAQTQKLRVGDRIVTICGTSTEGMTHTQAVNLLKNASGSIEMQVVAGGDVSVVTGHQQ
# B1: ARVCF, O00192 (peptide)
# chain: AKPQPVDSWV
# B2: KCNJ12, Q14500 (peptide)
# chain: QRPYRRESEI
# B3: ARHGEF26, Q96DR7 (peptide)
# chain: GRLLGLETNV
# B4: ARHGAP6, O43182 (peptide)
# chain: NPDALPETLV
# Assays:
# Test in all cases: holdup assay
# Design in all cases: key: below the threshold = too weak to quantify, mostly under pKd 3.1 to 4
# [1] = molecular target: NHERF2_2, Q15599
# Sequence of NHERF2_2, Q15599 (Q15599 142-238): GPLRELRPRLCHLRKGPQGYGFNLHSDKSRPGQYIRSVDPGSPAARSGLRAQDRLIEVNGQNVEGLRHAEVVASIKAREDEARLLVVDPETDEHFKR
# [2] = molecular target: TJP1_3, Q07157
# Sequence of TJP1_3, Q07157 (Q07157 416-512): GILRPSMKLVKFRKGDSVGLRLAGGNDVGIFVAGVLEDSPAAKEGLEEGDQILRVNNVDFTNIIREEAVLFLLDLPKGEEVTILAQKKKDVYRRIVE
# [3] = molecular target: T1, HTRA3, P83110
# [4] = molecular target: MAGI3_2, Q5TCQ9
# Sequence of MAGI3_2, Q5TCQ9 (Q5TCQ9 398-503): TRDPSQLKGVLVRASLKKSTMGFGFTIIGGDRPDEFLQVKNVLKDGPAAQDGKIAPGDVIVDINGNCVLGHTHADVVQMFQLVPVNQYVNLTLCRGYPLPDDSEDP
# [5] = molecular target: GRID2IP_2, A4D2P6
# Sequence of GRID2IP_2, A4D2P6 (A4D2P6 272-370): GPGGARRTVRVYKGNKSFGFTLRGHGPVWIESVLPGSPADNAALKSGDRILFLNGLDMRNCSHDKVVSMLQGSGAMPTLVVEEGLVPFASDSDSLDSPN
# [6] = molecular target: Inadl_4, Q8NI35
# Sequence of Inadl_4, Q8NI35 (Q8NI35 547-651): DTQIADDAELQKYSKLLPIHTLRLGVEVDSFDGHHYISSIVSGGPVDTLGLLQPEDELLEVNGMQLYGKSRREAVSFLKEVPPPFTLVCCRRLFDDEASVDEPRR
# [7] = molecular target: ARHGEF12, Q9NZN5-2
# Sequence of ARHGEF12, Q9NZN5-2 (Q9NZN5 other isoform, or with tags, fused parts or gaps): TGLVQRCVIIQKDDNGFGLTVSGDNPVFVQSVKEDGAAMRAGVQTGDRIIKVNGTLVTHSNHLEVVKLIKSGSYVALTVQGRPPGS
# [8] = molecular target: T2, LIN7C, Q9NUP9
# [9] = molecular target: MAGI1_1, Q96QZ7
# Sequence of MAGI1_1, Q96QZ7 (Q96QZ7 1-106): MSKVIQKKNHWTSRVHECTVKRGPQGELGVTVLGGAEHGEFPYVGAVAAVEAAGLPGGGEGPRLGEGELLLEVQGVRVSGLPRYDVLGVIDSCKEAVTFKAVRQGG
# [10] = molecular target: Inadl_5, Q8NI35
# Sequence of Inadl_5, Q8NI35 (Q8NI35 673-780): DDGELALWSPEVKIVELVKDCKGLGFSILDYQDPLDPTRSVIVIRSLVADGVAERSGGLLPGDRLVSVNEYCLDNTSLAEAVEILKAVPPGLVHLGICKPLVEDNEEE
# [11] = molecular target: CASK, O14936
# Sequence of CASK, O14936 (O14936 487-570): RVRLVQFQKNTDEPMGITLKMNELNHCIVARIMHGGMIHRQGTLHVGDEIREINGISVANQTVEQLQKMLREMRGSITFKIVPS
# [12] = molecular target: T3, MPP7, Q5T2T1
# [13] = molecular target: T4, MPDZ_10, O75970
# [14] = molecular target: T5, GRIP1_4, Q9Y3R0
# [15] = molecular target: T6, APBA1_1, Q02410
# [16] = molecular target: Inadl_3, Q8NI35
# Sequence of Inadl_3, Q8NI35 (Q8NI35 359-469): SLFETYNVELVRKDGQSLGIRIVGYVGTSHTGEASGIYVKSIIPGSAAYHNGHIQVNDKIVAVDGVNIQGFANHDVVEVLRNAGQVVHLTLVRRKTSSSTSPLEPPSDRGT
# [17] = molecular target: GRIP2_4, Q9C0E4
# Sequence of GRIP2_4, Q9C0E4 (Q9C0E4 446-548): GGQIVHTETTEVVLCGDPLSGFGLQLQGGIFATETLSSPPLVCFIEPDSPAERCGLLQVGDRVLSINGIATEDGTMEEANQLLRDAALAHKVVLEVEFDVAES
# [18] = molecular target: T7, PTPN13_1, Q12923
# [19] = molecular target: FRMPD2_3, Q68DX3
# Sequence of FRMPD2_3, Q68DX3 (Q68DX3 1073-1166): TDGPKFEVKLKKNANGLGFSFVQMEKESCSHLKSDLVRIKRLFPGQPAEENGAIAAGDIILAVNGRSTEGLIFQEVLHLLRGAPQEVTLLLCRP
# [20] = molecular target: DLG1_3, Q12959
# Sequence of DLG1_3, Q12959 (Q12959 457-571): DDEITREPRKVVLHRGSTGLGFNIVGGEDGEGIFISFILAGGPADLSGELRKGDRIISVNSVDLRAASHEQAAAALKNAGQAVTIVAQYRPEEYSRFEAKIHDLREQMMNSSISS
# [21] = molecular target: Inadl_6, Q8NI35
# Sequence of Inadl_6, Q8NI35 (Q8NI35 1058-1167): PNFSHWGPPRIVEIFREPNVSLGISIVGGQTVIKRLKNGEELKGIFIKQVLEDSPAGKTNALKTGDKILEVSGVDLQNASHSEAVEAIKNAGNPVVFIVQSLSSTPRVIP
# [22] = molecular target: T8, PARD3B_1, Q8TEW8
# [23] = molecular target: PDLIM1, O00151
# Sequence of PDLIM1, O00151 (O00151 1-87): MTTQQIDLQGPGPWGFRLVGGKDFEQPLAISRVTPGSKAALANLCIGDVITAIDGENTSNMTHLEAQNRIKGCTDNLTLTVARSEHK
# [24] = molecular target: HTRA1, Q92743
# Sequence of HTRA1, Q92743 (Q92743 360-477): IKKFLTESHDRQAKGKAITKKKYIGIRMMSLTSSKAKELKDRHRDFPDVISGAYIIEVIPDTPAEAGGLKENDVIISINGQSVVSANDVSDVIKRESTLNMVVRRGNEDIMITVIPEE
# [25] = molecular target: T9, SNTG1, Q9NSN8
# [26] = molecular target: T10, DFNB31_1, Q9P202
# [27] = molecular target: T11, MPDZ_12, O75970
# [28] = plain residues with an end cap or a label only (N-terminal biotin on a linker: ahx)
# [29] = plain residues with an end cap or a label only (N-terminal biotin on a linker: ttds)
binder,measurement,setting,value
B1,pKd,[1]; [28],below the threshold
same,pKd,[2]; [28],3.62
same,pKd,[3]; [28],5.51
same,pKd,[4]; [28],3.68
same,pKd,[5]; [28],below the threshold
same,pKd,[6]; [28],below the threshold
same,pKd,[7]; [28],below the threshold
same,pKd,[8]; [28],below the threshold
same,pKd,[9]; [28],below the threshold
same,pKd,[10]; [28],below the threshold
same,pKd,[11]; [28],below the threshold
same,pKd,[12]; [28],below the threshold
same,pKd,[13]; [28],below the threshold
same,pKd,[14]; [28],below the threshold
same,pKd,[15]; [28],below the threshold
same,pKd,[16]; [28],3.86
same,pKd,[17]; [28],below the threshold
same,pKd,[18]; [28],below the threshold
same,pKd,[19]; [28],below the threshold
same,pKd,[20]; [28],below the threshold
same,pKd,[21]; [28],4.33
same,pKd,[22]; [28],below the threshold
same,pKd,[23]; [28],3.55
same,pKd,[24]; [28],4.6
same,pKd,[25]; [28],4.64
same,pKd,[26]; [28],4.28
same,pKd,[27]; [28],4.4
B2,pKd,[1]; [29],below the threshold
same,pKd,[2]; [29],below the threshold
same,pKd,[3]; [29],below the threshold
same,pKd,[4]; [29],4.75
same,pKd,[5]; [29],below the threshold
same,pKd,[6]; [29],below the threshold
same,pKd,[7]; [29],3.65
same,pKd,[8]; [29],below the threshold
same,pKd,[9]; [29],below the threshold
same,pKd,[10]; [29],below the threshold
same,pKd,[11]; [29],below the threshold
same,pKd,[12]; [29],below the threshold
same,pKd,[13]; [29],below the threshold
same,pKd,[14]; [29],below the threshold
same,pKd,[15]; [29],below the threshold
same,pKd,[16]; [29],below the threshold
same,pKd,[17]; [29],below the threshold
same,pKd,[18]; [29],below the threshold
same,pKd,[19]; [29],below the threshold
same,pKd,[20]; [29],4.08
same,pKd,[21]; [29],below the threshold
same,pKd,[22]; [29],below the threshold
same,pKd,[23]; [29],below the threshold
same,pKd,[24]; [29],below the threshold
same,pKd,[25]; [29],3.82
same,pKd,[26]; [29],4.02
same,pKd,[27]; [29],below the threshold
B3,pKd,[1]; [29],below the threshold
same,pKd,[2]; [29],below the threshold
same,pKd,[3]; [29],below the threshold
same,pKd,[4]; [29],4.68
same,pKd,[5]; [29],below the threshold
same,pKd,[6]; [29],below the threshold
same,pKd,[7]; [29],below the threshold
same,pKd,[8]; [29],3.72
same,pKd,[9]; [29],below the threshold
same,pKd,[10]; [29],below the threshold
same,pKd,[11]; [29],below the threshold
same,pKd,[12]; [29],below the threshold
same,pKd,[13]; [29],below the threshold
same,pKd,[14]; [29],below the threshold
same,pKd,[15]; [29],below the threshold
same,pKd,[16]; [29],3.58
same,pKd,[17]; [29],below the threshold
same,pKd,[18]; [29],below the threshold
same,pKd,[19]; [29],below the threshold
same,pKd,[20]; [29],4.92
same,pKd,[21]; [29],below the threshold
same,pKd,[22]; [29],below the threshold
same,pKd,[23]; [29],below the threshold
same,pKd,[24]; [29],below the threshold
same,pKd,[25]; [29],4.95
same,pKd,[26]; [29],3.91
same,pKd,[27]; [29],below the threshold
B4,pKd,[1]; [29],below the threshold
same,pKd,[2]; [29],below the threshold
same,pKd,[3]; [29],below the threshold
same,pKd,[4]; [29],4.6
same,pKd,[5]; [29],3.8
same,pKd,[6]; [29],below the threshold
same,pKd,[7]; [29],3.85
same,pKd,[8]; [29],4.31
same,pKd,[9]; [29],below the threshold
same,pKd,[10]; [29],below the threshold
same,pKd,[11]; [29],below the threshold
same,pKd,[12]; [29],below the threshold
same,pKd,[13]; [29],below the threshold
same,pKd,[14]; [29],below the threshold
same,pKd,[15]; [29],below the threshold
same,pKd,[16]; [29],4.36
same,pKd,[17]; [29],below the threshold
same,pKd,[18]; [29],below the threshold
same,pKd,[19]; [29],below the threshold
same,pKd,[20]; [29],3.5
same,pKd,[21]; [29],4.3
same,pKd,[22]; [29],below the threshold
same,pKd,[23]; [29],below the threshold
same,pKd,[24]; [29],4.13
same,pKd,[25]; [29],5.33
same,pKd,[26]; [29],4.1
same,pKd,[27]; [29],below the threshold
